Measurements reported in the supplement of paper PMC10724198.
± gives the standard deviation of the averaged measurements.

These sequences were tested on Saccharomyces cerevisiae (assay: protein stability index of tFT-peptide fusion (C-terminal peptide) (PSI (0-1 scale)); higher = more stable (slower turnover)). Conditions: genetic background: cdc34-1; temperature: 37 C.
Experimental: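 MPS profiling in S. cerevisiae of the tFT-X12 degron library: putative degron peptides plus stable controls, 12 aa, fused to the C-terminus of a sfGFP-mCherry timer. Cells are FACS-sorted into 8 mCherry/sfGFP bins and deep-sequenced. PSI runs from 0 (unstable) to 1 (stable). Backgrounds are wild type, das1Δ and doa10Δ at 30 °C, and wild type, das1Δ, cdc34-1 and cdc53-1 at 37 °C; 2-3 technical replicates each.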
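Further: PSI is a weighted mean of sequencing reads over stability bins, variants kept only with over 10 reads, mCherry proximal and sfGFP distal, peptide attached via GGGS linker.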

Row | Sequence | protein stability index
1 | PPSRVSIRLLIR | 0.446 ± 0.025
2 | PRFLRWLFSLLI | 0.739 ± 0.039
3 | PRINTFVVVRVC | 0.102 ± 0.02
4 | PSCLLVAPRFSS | 0.672 ± 0.036
5 | PSFSLLRSLTLI | 0.6084 ± 0.0024
6 | PTYTKYRTRQIN | 0.528 ± 0.066
7 | PVILISWQLRCY | 0.018 ± 0.0019
8 | PVPPRVNLLRVS | 0.619 ± 0.034
9 | PVWLSFHFFLCA | 0.426 ± 0.041
10 | QIDYSVYIFALG | 0.4309 ± 0.00032
11 | QRFASFFFLHLS | 0.411 ± 0.069
12 | QRTNTIINKRIV | 0.704 ± 0.036
13 | RALSLPPLLLVL | 0.386 ± 0.013
14 | RCIFYHSPVLCL | 0.469 ± 0.022
15 | RCQILSYCLLFV | 0.4186 ± 0.0033
16 | RCSLRLRFIFVR | 0.0761 ± 0.024
17 | RFFFASRYIECF | 0.181 ± 0.0096
18 | RFWFTFYLIAVF | 0.0612 ± 0.029
19 | RGWGGGTWVKMG | 0.592 ± 0.011
20 | RGYSAIWGCKMN | 0.619 ± 0.097
21 | RIIDRVSRLIML | 0.765 ± 0.026
22 | RKFRAWIRITRT | 0.627 ± 0.042
23 | RLCKGQKYTKIN | 0.597 ± 0.014
24 | RLRWLSPMTHVG | 0.634 ± 0.013
25 | RLSGACILLSLV | 0.634 ± 0.045
26 | RLSLCLAVLFLV | 0.433 ± 0.062

Row | Sequence | protein stability index
27 | RPSHTSVYRLLH | 0.553 ± 0.061
28 | RRLAVWCDFRSL | 0.684 ± 0.054
29 | RRPVHTHTSVSP | 0.7449 ± 0.00016
30 | RRRGIYARASVV | 0.636 ± 0.018
31 | RSITFFPVCLVK | 0.316 ± 0.079
32 | RSLSFGMVLCYS | 0.358 ± 0.027
33 | RSLSWCTKRRCC | 0.595 ± 0.044
34 | RSSGHLLDGRAF | 0.697 ± 0.03
35 | RVGGVVVLGCVG | 0.645 ± 0.03
36 | RVGYSIIIIGIE | 0.351 ± 0.026
37 | RVWIVCYHVSSY | 0.214 ± 0.016
38 | RWSEHGFLVFLS | 0.643 ± 0.022
39 | SARSYLTERLLA | 0.6255 ± 0.0024
40 | SASPFYLPPPPV | 0.709 ± 0.024
41 | SAVLFLLFVYVR | 0.0536 ± 0.0084
42 | SCIFVSSYFFVF | 0.417 ± 0.0029
43 | SCLRVYFSVVVS | 0.231 ± 0.013
44 | SCLSLALLVFFG | 0.442 ± 0.014
45 | SFFFSFFPYFFC | 0.6386 ± 0.0014
46 | SFTVFVVLLFPP | 0.311 ± 0.021
47 | SFVGCWFVLLVR | 0.0307 ± 0.0085
48 | SFWLFSSIGVCF | 0.594 ± 0.035
49 | SGMLVYFGTVCY | 0.502 ± 0.0077
50 | SKSRKTGWMLIS | 0.622 ± 0.055
51 | SLFSPPVLATPS | 0.668 ± 0.031
52 | SLGHIGFWRFAG | 0.554 ± 0.0087

Row | Sequence | protein stability index
53 | SLLFVFVSVGCI | 0.0483 ± 0.0074
54 | SLRSLYLLARLS | 0.518 ± 0.061
55 | SLSPVFVAVWFL | 0.466 ± 0.012
56 | SLVLLLLITFSL | 0.431 ± 0.023
57 | SNFFPVPLLLFR | 0.211 ± 0.0084
58 | SPCFLDPPRLIS | 0.663 ± 0.031
59 | SPLHGFLFLVLL | 0.395 ± 0.03
60 | SPLLPPPLLFLS | 0.596 ± 0.056
61 | SRDSLLTLIPSC | 0.646 ± 0.058
62 | SRLVIGRWSVLV | 0.567 ± 0.045
63 | SRPEPNGLRKLV | 0.587 ± 0.009
64 | SSAPTIVIWRFS | 0.672 ± 0.041
65 | SSGSLLLPRFLT | 0.658 ± 0.038
66 | SSLLPLLAQLVG | 0.594 ± 0.046
67 | SSMSAVFRLQVC | 0.567 ± 0.0096
68 | SSRPLSPQSLRL | 0.637 ± 0.2
69 | SSVCLYWCCLFV | 0.522 ± 0.036
70 | SSVCYFGLLFIV | 0.452 ± 0.038
71 | SVFRFLFLALLV | 0.2 ± 0.052
72 | SVFVFFGFIDFL | 0.52 ± 0.015
73 | SVLASFFSAFVC | 0.459 ± 0.0087
74 | SVLLVFRFFWEL | 0.417 ± 0.012
75 | SVLVWVFGLFVI | 0.411 ± 0.012
76 | SVMTFVFFISAF | 0.257 ± 0.013
77 | SWRRCLSSIPVA | 0.383 ± 0.0085
78 | SWVVLVSFLSWR | 0.2561 ± 0.0015

Same assay, conditions: genetic background: cdc53-1; temperature: 37 C

Row | Sequence | protein stability index
79 | PPSRVSIRLLIR | 0.473 ± 0.0095
80 | PRFLRWLFSLLI | 0.704 ± 0.012
81 | PRINTFVVVRVC | 0.183 ± 0.015
82 | PSCLLVAPRFSS | 0.745 ± 0.015
83 | PSFSLLRSLTLI | 0.7024 ± 0.0056
84 | PTYTKYRTRQIN | 0.745 ± 0.025
85 | PVILISWQLRCY | 0.0284 ± 0.0013
86 | PVPPRVNLLRVS | 0.6641 ± 0.0053
87 | PVWLSFHFFLCA | 0.48 ± 0.011
88 | QIDYSVYIFALG | 0.493 ± 0.036
89 | QRFASFFFLHLS | 0.504 ± 0.061
90 | QRTNTIINKRIV | 0.753 ± 0.016
91 | RALSLPPLLLVL | 0.443 ± 0.038
92 | RCIFYHSPVLCL | 0.515 ± 0.022
93 | RCQILSYCLLFV | 0.42 ± 0.017
94 | RCSLRLRFIFVR | 0.0507 ± 0.018
95 | RFFFASRYIECF | 0.173 ± 0.027
96 | RFWFTFYLIAVF | 0.0779 ± 0.017
97 | RGWGGGTWVKMG | 0.72324 ± 0.00012
98 | RGYSAIWGCKMN | 0.742 ± 0.045
99 | RIIDRVSRLIML | 0.826 ± 0.019
100 | RKFRAWIRITRT | 0.725 ± 0.031
101 | RLCKGQKYTKIN | 0.718 ± 0.02
102 | RLRWLSPMTHVG | 0.7337 ± 0.0061
103 | RLSGACILLSLV | 0.694 ± 0.015
104 | RLSLCLAVLFLV | 0.574 ± 0.035

Row | Sequence | protein stability index
105 | RPSHTSVYRLLH | 0.677 ± 0.054
106 | RRLAVWCDFRSL | 0.75155 ± 0.00053
107 | RRPVHTHTSVSP | 0.742 ± 0.05
108 | RRRGIYARASVV | 0.728 ± 0.019
109 | RSITFFPVCLVK | 0.389 ± 0.06
110 | RSLSFGMVLCYS | 0.366 ± 0.0079
111 | RSLSWCTKRRCC | 0.7011 ± 0.0057
112 | RSSGHLLDGRAF | 0.739 ± 0.011
113 | RVGGVVVLGCVG | 0.711 ± 0.02
114 | RVGYSIIIIGIE | 0.433 ± 0.087
115 | RVWIVCYHVSSY | 0.3264 ± 0.00073
116 | RWSEHGFLVFLS | 0.736 ± 0.012
117 | SARSYLTERLLA | 0.714 ± 0.016
118 | SASPFYLPPPPV | 0.7371 ± 0.0058
119 | SAVLFLLFVYVR | 0.081 ± 0.012
120 | SCIFVSSYFFVF | 0.465 ± 0.057
121 | SCLRVYFSVVVS | 0.295 ± 0.048
122 | SCLSLALLVFFG | 0.524 ± 0.031
123 | SFFFSFFPYFFC | 0.675 ± 0.02
124 | SFTVFVVLLFPP | 0.437 ± 0.05
125 | SFVGCWFVLLVR | 0.0395 ± 0.0077
126 | SFWLFSSIGVCF | 0.5958 ± 0.004
127 | SGMLVYFGTVCY | 0.599 ± 0.13
128 | SKSRKTGWMLIS | 0.743 ± 0.029
129 | SLFSPPVLATPS | 0.7094 ± 0.0039
130 | SLGHIGFWRFAG | 0.709 ± 0.0081

Row | Sequence | protein stability index
131 | SLLFVFVSVGCI | 0.147 ± 0.0097
132 | SLRSLYLLARLS | 0.689 ± 0.047
133 | SLSPVFVAVWFL | 0.4933 ± 0.0015
134 | SLVLLLLITFSL | 0.507 ± 0.015
135 | SNFFPVPLLLFR | 0.117 ± 0.024
136 | SPCFLDPPRLIS | 0.728 ± 0.025
137 | SPLHGFLFLVLL | 0.445 ± 0.0069
138 | SPLLPPPLLFLS | 0.7307 ± 0.0032
139 | SRDSLLTLIPSC | 0.733 ± 0.0095
140 | SRLVIGRWSVLV | 0.617 ± 0.016
141 | SRPEPNGLRKLV | 0.727 ± 0.015
142 | SSAPTIVIWRFS | 0.724 ± 0.026
143 | SSGSLLLPRFLT | 0.7301 ± 0.0046
144 | SSLLPLLAQLVG | 0.7484 ± 0.0013
145 | SSMSAVFRLQVC | 0.657 ± 0.0093
146 | SSRPLSPQSLRL | 0.709 ± 0.043
147 | SSVCLYWCCLFV | 0.602 ± 0.013
148 | SSVCYFGLLFIV | 0.561 ± 0.015
149 | SVFRFLFLALLV | 0.162 ± 0.018
150 | SVFVFFGFIDFL | 0.589 ± 0.12
151 | SVLASFFSAFVC | 0.6975 ± 0.0014
152 | SVLLVFRFFWEL | 0.461 ± 0.018
153 | SVLVWVFGLFVI | 0.525 ± 0.013
154 | SVMTFVFFISAF | 0.397 ± 0.021
155 | SWRRCLSSIPVA | 0.416 ± 0.012
156 | SWVVLVSFLSWR | 0.3502 ± 0.0028
